Experimental data taken from PMC10397247.

How the values were obtained:
Test in all cases: two-hybrid library CCmax;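 also: natural log of median RNA to DNA barcode read ratio; higher means stronger binding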
[1] = target: T1, 4H340-AA; conditions: mean of both orientations
T1 chain: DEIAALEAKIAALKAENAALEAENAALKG

[2] = target: T2, 4H2553-AA; conditions: mean of both orientations
T2 chain: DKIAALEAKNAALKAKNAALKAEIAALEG

[3] = target: T3, 4H2648-AA; conditions: mean of both orientations
T3 chain: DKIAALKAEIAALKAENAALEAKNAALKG

[4] = target: T4, 4H3697-AA; conditions: mean of both orientations
T4 chain: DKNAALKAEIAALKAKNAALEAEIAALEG

[5] = target: T5, 4H384-AA; conditions: mean of both orientations
T5 chain: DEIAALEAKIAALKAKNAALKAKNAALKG

[6] = target: T6, 4H1874-AA; conditions: mean of both orientations
T6 chain: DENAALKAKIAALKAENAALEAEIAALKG

[7] = target: T7, 4H3865-AA; conditions: mean of both orientations
T7 chain: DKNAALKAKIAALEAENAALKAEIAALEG

[8] = target: T8, 4H2198-AA; conditions: mean of both orientations
T8 chain: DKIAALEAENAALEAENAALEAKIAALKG

[9] = target: T9, 4H982-AA; conditions: mean of both orientations
T9 chain: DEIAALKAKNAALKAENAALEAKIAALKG

[10] = target: T10, 4H3413-AA; conditions: mean of both orientations
T10 chain: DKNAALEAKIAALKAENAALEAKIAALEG

[11] = target: T11, 4H3056-AA; conditions: mean of both orientations
T11 chain: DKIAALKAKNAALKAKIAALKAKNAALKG

[12] = target: T12, 4H697-AA; conditions: mean of both orientations
T12 chain: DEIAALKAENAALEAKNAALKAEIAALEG

[13] = target: T13, 4H3133-AA; conditions: mean of both orientations
T13 chain: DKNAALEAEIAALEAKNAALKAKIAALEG

[14] = target: T14, 4H3631-AA; conditions: mean of both orientations
T14 chain: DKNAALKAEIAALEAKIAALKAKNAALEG

[15] = target: T15, 4H3606-AA; conditions: mean of both orientations
T15 chain: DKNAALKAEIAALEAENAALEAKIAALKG

[16] = target: T16, 4H32-AA; conditions: mean of both orientations
T16 chain: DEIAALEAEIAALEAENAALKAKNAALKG

[17] = target: T17, 4H2620-AA; conditions: mean of both orientations
T17 chain: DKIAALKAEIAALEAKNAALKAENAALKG

[18] = target: T18, 4H1629-AA; conditions: mean of both orientations
T18 chain: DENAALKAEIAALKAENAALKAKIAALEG

[19] = target: T19, 4H1594-AA
T19 chain: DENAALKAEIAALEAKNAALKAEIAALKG

[20] = target: T20, 4H3162-AA; conditions: mean of both orientations
T20 chain: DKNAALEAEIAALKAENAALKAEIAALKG

[21] = target: T21, 4H3718-AA
T21 chain: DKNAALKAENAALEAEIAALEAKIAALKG

[22] = target: T22, 4H1845-AA; conditions: mean of both orientations
T22 chain: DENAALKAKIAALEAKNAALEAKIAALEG

[23] = target: T23, 4H2907-AA; conditions: mean of both orientations
T23 chain: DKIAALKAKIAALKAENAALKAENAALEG

[24] = target: T24, 4H3378-AA; conditions: mean of both orientations
T24 chain: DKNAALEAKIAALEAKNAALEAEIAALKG

[25] = target: T25, 4H3588-AA; conditions: mean of both orientations
T25 chain: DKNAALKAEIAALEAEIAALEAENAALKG

[26] = target: T26, 4H2611-AA; conditions: mean of both orientations
T26 chain: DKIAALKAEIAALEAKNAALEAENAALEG

[27] = target: T27, 4H717-AA; conditions: mean of both orientations
T27 chain: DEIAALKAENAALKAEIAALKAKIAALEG

[28] = target: T28, 4H2165-AA; conditions: mean of both orientations
T28 chain: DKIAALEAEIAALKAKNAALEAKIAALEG

[29] = target: T29, 4H234-AA; conditions: mean of both orientations
T29 chain: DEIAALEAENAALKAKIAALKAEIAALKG

[30] = target: T30, 4H906-AA; conditions: mean of both orientations
T30 chain: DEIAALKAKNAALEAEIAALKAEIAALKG

[31] = target: T31, 4H3844-AA; conditions: mean of both orientations
T31 chain: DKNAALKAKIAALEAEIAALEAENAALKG

[32] = target: T32, 4H342-AA; conditions: mean of both orientations
T32 chain: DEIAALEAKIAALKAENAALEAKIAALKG

[33] = target: T33, 4H993-AA; conditions: mean of both orientations
T33 chain: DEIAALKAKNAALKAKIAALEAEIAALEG

[34] = target: T34, 4H678-AA; conditions: mean of both orientations
T34 chain: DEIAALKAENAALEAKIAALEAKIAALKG

[35] = target: T35, 4H2151-AA; conditions: mean of both orientations
T35 chain: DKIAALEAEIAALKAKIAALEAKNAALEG

[36] = target: T36, 4H2837-AA; conditions: mean of both orientations
T36 chain: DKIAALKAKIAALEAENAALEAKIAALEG

[37] = target: T37, 4H2393-AA; conditions: mean of both orientations
T37 chain: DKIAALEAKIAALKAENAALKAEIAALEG

[38] = target: T38, 4H2883-AA; conditions: mean of both orientations
T38 chain: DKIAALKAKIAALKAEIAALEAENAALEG

[39] = target: T39, 4H3627-AA; conditions: mean of both orientations
T39 chain: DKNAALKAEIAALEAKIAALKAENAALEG

[40] = target: T40, 4H1867-AA; conditions: mean of both orientations
T40 chain: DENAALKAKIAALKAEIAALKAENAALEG

[41] = target: T41, 4H48-AA; conditions: mean of both orientations
T41 chain: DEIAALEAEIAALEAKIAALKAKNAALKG

[42] = target: T42, 4H317-AA; conditions: mean of both orientations
T42 chain: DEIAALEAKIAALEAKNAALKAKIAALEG

[43] = target: T43, 4H780-AA; conditions: mean of both orientations
T43 chain: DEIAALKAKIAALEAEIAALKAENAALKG

[44] = target: T44, 4H429-AA; conditions: mean of both orientations
T44 chain: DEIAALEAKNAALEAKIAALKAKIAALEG

[45] = target: T45, 4H2190-AA; conditions: mean of both orientations
T45 chain: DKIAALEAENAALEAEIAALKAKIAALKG

[46] = target: T46, 4H2354-AA; conditions: mean of both orientations
T46 chain: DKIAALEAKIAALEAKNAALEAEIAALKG

[47] = target: T47, 4H881-AA; conditions: mean of both orientations
T47 chain: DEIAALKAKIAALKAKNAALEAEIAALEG

[48] = target: T48, 4H2729-AA; conditions: mean of both orientations
T48 chain: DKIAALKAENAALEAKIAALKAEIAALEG

[49] = target: T49, 4H794-AA; conditions: mean of both orientations
T49 chain: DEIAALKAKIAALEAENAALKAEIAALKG

[50] = target: T50, 4H605-AA; conditions: mean of both orientations
T50 chain: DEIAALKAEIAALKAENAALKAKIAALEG

[51] = target: T51, 4H2466-AA; conditions: mean of both orientations
T51 chain: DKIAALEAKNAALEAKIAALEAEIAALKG

[52] = target: T52, 4H1636-AA
T52 chain: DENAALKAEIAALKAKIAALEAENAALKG

[53] = target: T53, 4H2642-AA; conditions: mean of both orientations
T53 chain: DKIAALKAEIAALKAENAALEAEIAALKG

[54] = target: T54, 4H2754-AA; conditions: mean of both orientations
T54 chain: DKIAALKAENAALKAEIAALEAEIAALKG

[55] = target: T55, 4H3343-AA; conditions: mean of both orientations
T55 chain: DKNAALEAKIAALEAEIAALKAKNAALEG

[56] = target: T56, 4H454-AA; conditions: mean of both orientations
T56 chain: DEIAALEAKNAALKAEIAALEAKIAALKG

[57] = target: T57, 4H2617-AA; conditions: mean of both orientations
T57 chain: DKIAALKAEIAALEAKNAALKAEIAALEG

[58] = target: T58, 4H2944-AA; conditions: mean of both orientations
T58 chain: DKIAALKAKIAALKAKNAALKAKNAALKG

[59] = target: T59, 4H3112-AA; conditions: mean of both orientations
T59 chain: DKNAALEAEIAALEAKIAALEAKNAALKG

[60] = target: T60, 4H335-AA; conditions: mean of both orientations
T60 chain: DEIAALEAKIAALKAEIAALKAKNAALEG

[61] = target: T61, 4H2277-AA; conditions: mean of both orientations
T61 chain: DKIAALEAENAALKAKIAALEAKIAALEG

[62] = target: T62, 4H3655-AA; conditions: mean of both orientations
T62 chain: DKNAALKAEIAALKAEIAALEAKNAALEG

[63] = target: T63, 4H2505-AA; conditions: mean of both orientations
T63 chain: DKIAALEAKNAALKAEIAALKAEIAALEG

[64] = target: T64, 4H2575-AA; conditions: mean of both orientations
T64 chain: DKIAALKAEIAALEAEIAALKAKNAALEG

[65] = target: T65, 4H3921-AA; conditions: mean of both orientations
T65 chain: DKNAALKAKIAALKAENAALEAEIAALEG

[66] = target: T66, 4H2078-AA; conditions: mean of both orientations
T66 chain: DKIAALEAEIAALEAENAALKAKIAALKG

[67] = target: T67, 4H2949-AA; conditions: mean of both orientations
T67 chain: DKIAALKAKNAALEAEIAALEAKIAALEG

[68] = target: T68, 4H566-AA; conditions: mean of both orientations
T68 chain: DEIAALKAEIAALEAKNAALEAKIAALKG

[69] = target: T69, 4H3427-AA; conditions: mean of both orientations
T69 chain: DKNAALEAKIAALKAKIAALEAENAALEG

B1: 4H1594-AA (peptide)
chain: DENAALKAEIAALEAKNAALKAEIAALKG
interaction score [1]: 0.908 | interaction score [2]: -1.6 | interaction score [3]: -0.627 | interaction score [4]: 0.415 | interaction score [5]: -1.64 | interaction score [6]: 2.24 | interaction score [7]: 1.15 | interaction score [8]: -1.61 | interaction score [9]: 1.3 | interaction score [10]: 1.73 | interaction score [11]: -2.01 | interaction score [12]: -2.03 | interaction score [13]: -2.2 | interaction score [14]: -1.31 | interaction score [15]: 1.96 | interaction score [16]: -1.19 | interaction score [17]: -1.5 | interaction score [18]: -0.822 | interaction score [19]: 1.19 | interaction score [20]: 0.0257 | interaction score [21]: -1.13 | interaction score [22]: -0.968 | interaction score [23]: -1.36 | interaction score [24]: -0.189 | interaction score [25]: -1.26 | interaction score [26]: -1.7

B2: 4H1636-AA (peptide)
chain: DENAALKAEIAALKAKIAALEAENAALKG
interaction score [27]: -0.951 | interaction score [28]: -1.82 | interaction score [29]: -1.95 | interaction score [30]: -1.91 | interaction score [31]: -0.519 | interaction score [32]: -1.29 | interaction score [33]: -1.52 | interaction score [34]: -1.1 | interaction score [35]: -0.999 | interaction score [36]: -1.5 | interaction score [37]: -0.706 | interaction score [38]: -1.16 | interaction score [39]: -0.519 | interaction score [40]: -0.897 | interaction score [41]: -1.07 | interaction score [42]: -1.74 | interaction score [43]: -1.3 | interaction score [44]: -1.27 | interaction score [45]: -0.932 | interaction score [46]: -1.49 | interaction score [47]: -1.46 | interaction score [48]: -1.23 | interaction score [49]: -1.68 | interaction score [50]: -1.56 | interaction score [51]: -2.07 | interaction score [52]: 2.39 | interaction score [53]: -1.33 | interaction score [54]: -1.42 | interaction score [55]: -1.42 | interaction score [15]: -1.17 | interaction score [56]: -1.23 | interaction score [57]: -1.46 | interaction score [58]: -1.81 | interaction score [59]: -0.658 | interaction score [60]: -1.41 | interaction score [61]: -1.87 | interaction score [62]: -0.763 | interaction score [63]: -1.47 | interaction score [64]: -0.963 | interaction score [65]: -1.8 | interaction score [66]: -1.57 | interaction score [67]: -1.16 | interaction score [68]: -1.41 | interaction score [69]: -0.846
